# Experimental data taken from patent US5434068.
# Tested on: BglII restriction endonuclease (R.BglII) (Bacillus globigii)
# Experiment: cleavage_in_vitro
# Conditions: nonspecific nicking test; 80 units, 4 h, 37 C, 10 mM MgCl2
substance,measurement,value
phiX174 RFI DNA,activity (% converted to RFII),10
